Measurements reported in the nanobody polyreactivity screen of Harvey et al. (2022).

Assay: yeast display, Sf9 membrane polyspecificity reagent, FACS + sequencing; frameworks hold sequencing errors
Summary of the method: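 Synthetic nanobody libraries on Saccharomyces cerevisiae BJ5465 were galactose-induced for 36–48 hours, stained 1 hour at 4 °C with 10% biotinylated, detergent-solubilized Sf9 membrane reagent and enriched on streptavidin microbeads. FACS then separated cells into low and high (top ~1%) gates by anti-HA (expression) and streptavidin (reagent binding) fluorescence. Genes were colony-PCR amplified, MiSeq 2 × 250 sequenced and CDR-length filtered. A clone's polyreactivity label is that of its gate of origin.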

Sequence	polyreactivity (PSR sort gate)
QVQLVESGGGLVQAGGSLRFSCAASGRTIWTYVMGWYRQAPGKERELVAAISRSGSSTYYADSVKGRFTISRDNAKNTVYLQMNSLKPEDTAVYYCNKVDGTTLDDHYMDYWGQGTQVTVAS	low polyreactivity
QVQLVESGGGLVQAGGSLRFSCAASGSIFITYAMGWYRQAPGKERELVAAISRSGGSTYYADSVKGRFTISRDNAKNTVYLQMNSLKPEDTAVYYCAAYPYSAGRYYYWGQGTQVTVSS	high polyreactivity
QVQLVESGGGLVQAGGSLRFSCAASGSIFSSYAMGWYRQAPGKERELVAAISSSGDSTYADSVKGRFTISRDNAKNTVYLQMNSLKPEDTAVYYCAVGGAGSDDYWGQGTQVTVSS	low polyreactivity
QVQLVESGGGLVQAGGSLRFSCAASGSIFYRNAMGWDRQAPGKEREMVAAISASSGRTYYADSVKGRFTISRDNAKNTVYLQMNSLKPEDTAVYYCAVRPYRSAGGSVTRGAYYYWGQGTQVTVSS	high polyreactivity
QVQLVESGGGLVQAGGSLRFSCAASGSTFAYNDMGWYRQAPGKERELVADIRSGGNTNYADSVKGRFTISRDNAKNTVYFQMNSLKPEDTAVYYCATDGYRIDVYHPDYRYDYWGQGTQVTVSS	low polyreactivity
QVQLVESGGGLVQAGGSLRFSCAASGSTFGYYAMGWYRQAPGKEREMVAVITYSGGSTYYADSVKGRFTISRDNAKNTVYLQMNSLKPEDTAVYYCATDNYDWSSWAFRGYWYDYWGQGTQVTVSS	low polyreactivity
QVQLVESGGGLVQAGGSLRFSCAASGSTFPSYAMGWYRQAPGKERELVAAITNGGSTTYADSVKGRFTISRDNAKITDYLQMNSLKPEDTAVYYCAARYYYYYYIRRDYWGQGTQVTVSS	low polyreactivity
QVQLVESGGGLVQAGGSLRFSCAASGSTIPPNAMGWYRQAPGKERELVAAINSTGSTNYADSVKGRFTISRDNAKNTVSLQMNSLQPEDTAVYYCAAEGLPYVRVFDFVSRYDYWGQGTQVTVSS	low polyreactivity
QVQLVESGGGLVQAGGSLRFSCAASGTFVPYAMGWYRQAPGKEMELVARITWRGGSTYYADSVKGRFTISRDNAKNTVDLQLNSLKPEDTAVYYCATVSDNRYYYWGQGTQVTVSS	low polyreactivity
QVQLVESGGGLVQAGGSLRFSCAASRFNFYDYVMGWYRQAPGKYRELVAAISSNGGSTYYADSVKGRFTISRDNAKNTVYFQMYSLKPEDTAVYYCAVTENSKSNKIRPDQGDYWGQGTQVTVSS	high polyreactivity
QVQLVESGGGLVQAGGSLRFSCPASGSILTGYAMGWYRQAPGKERELVAAINFSGDNTYYADSVKGRFTISRDNAKNTVFLPMNSLKPEDTAVYYCNADGRYAYVWYDYCGQGTQVTVSS	low polyreactivity
QVQLVESGGGLVQAGGSLRIICAASGFIFKYYAMGWYRQAPGKERELVAAISSGGSTKYADSVKGRFTISRDNAKNTVYLQMNSLIPEDTAVYYCNADWYWKYDYWGQGTQVTVSS	high polyreactivity
QVQLVESGGGLVQAGGSLRIICAASGRIFSNYAMGWYRQAPGKERELVAAITYSTSRTYYADSVKGRFTISRDNAKNTVYLHMNSLKPEDTAVDYCAAGRGPYYRSRTPLYYWGQGTQVTVSS	high polyreactivity
QVQLVESGGGLVQAGGSLRIISAASGSTFRWYDMGWYRQAPGKEMELVAAITGSGGATYYADSVKGRFTIARDYAKNTVYLQKNRLKPEDTAVYYCAAVWWVPLAYDDYDYWGQGTQVTVSS	high polyreactivity
QVQLVESGGGLVQAGGSLRISCAASGFIFGGYAMGWYRQAPGKERELVAAISYSGGSTYYADSVKGRFTISRDNAKNTVYLQMNSLKPEDTAVYYCAVGYPYRYDYWGQGTQVTVSS	high polyreactivity
QVQLVESGGGLVQAGGSLRISCAASGFIFGPNAMGWYRQAPGKERELVAAITYSGGSTYYADSVKGRFTISRDNAKNTVYLQMNSLKPEDTAVYYCAADLYTLRYGYRYEYWGQGTQVTVSS	high polyreactivity
QVQLVESGGGLVQAGGSLRISCAASGFIFRSYAMGWYRQAPGKERELVAAISRSGGSTYYADSVKGRFTISRDNAKNTVYLQMNSLKPEDTAVYYCATDGGRSTARGYGHWGQGTQVTVSS	high polyreactivity
QVQLVESGGGLVQAGGSLRISCAASGFIIFEYDMGWYRQAPGKERDFVAAINFSGGSTYYADSEKGRFTISRDNAKNTVYLQMNSLKPEDTAVYYCAADVVRYYYTYDYWGQGTQVTVSS	low polyreactivity
QVQLVESGGGLVQAGGSLRISCAASGFILKDNAMGWYRQAPGKERELFAAISSGGGTYYADSEKGRFTITRDNAKNTVYLQMNSLNPEDTAVYYCNGDDLYSLNDSSEDYWGQGSQVTVSS	high polyreactivity
QVQLVESGGGLVQAGGSLRISCAASGFILTGYTMGWYRQAPGKERELVAAISWSGARTYYADSVKGRFTISRDNAMNTVYLQMNSLKPEDTAVYYCARDYYRPTQRYDYWGQGTQVTVSS	high polyreactivity
QVQLVESGGGLVQAGGSLRISCAASGFTFEDNTMGWYRQAPGKERELVAAITWGGVSTYYADSVKGRFTISRDNAKNTVYLQMNSLKPEDTAVYYCARDYDVYTVFLMDYWGQGTQVNVSS	low polyreactivity
QVQLVESGGGLVQAGGSLRISCAASGFTFGPYAMGWYRQAPGKERELVAAISQSGGRTSYADSVKGRFTISRDNAKNTVYLQMNSLKPEDTAVYYCAKRAYGYRSIYRMDYWGQGTQVTVSS	high polyreactivity

Sequence	polyreactivity (PSR sort gate)
QVQLVESGGGLVQAGGSLRISCAASGFTFQYYAMGWYRQAPGKERELVATITTSGGNTYYADSVKGRFTISRDNEKNTVYLQMNCLNPEDTAVYYCAARRYRASSRGYGYWGQGTQVTVSS	high polyreactivity
QVQLVESGGGLVQAGGSLRISCAASGFTFSAYAMGRYRQAPGKERELVAAISWSGSRTYYADSVKGRFTISRDNAKNTVYLQMNSLKPEDTAVYYCAKEPYDTFGFYEYDYWGQGTQVNVSS	low polyreactivity
QVQLVESGGGLVQAGGSLRISCAASGFTFSQYAMGRYRQAPGKERELVAAISVSGGTTYYADSVKGRFTISRDNAKNTVYLQMNSLKPEDTAVYYCDARTPFSSSPYVNTSGYYYWGQGSQVTVSS	high polyreactivity
QVQLVESGGGLVQAGGSLRISCAASGFTFSYYAMGWYRQAPGKERDLVAAISGRTGRTYYADSVKGRFTISRDNAKNTVYLQMNSLKPEDTAVYYCAAGYTFSRYDDDYWGQGTQVTVSW	low polyreactivity
QVQLVESGGGLVQAGGSLRISCAASGFTLEPNTMGWYRQAPWKERELVAGISWSGGSTYYADSVKGRFTISRDNAKNTVYLQMNSLKPEDTAVYYCNAPPVRRSIVYDRRDYWGQGTQVTVSS	low polyreactivity
QVQLVESGGGLVQAGGSLRISCAASGFTYSSYAMGWYRQATGKERELVAAISTRGGSTYYADSVKGRFTISRDNAKNTVYLQMNSLKPEDTAVYYCSTGGRGGRRYEYWGQGTQVTVSS	low polyreactivity
QVQLVESGGGLVQAGGSLRISCAASGGIFNYYTMGWYRQAPGKERELVAAINSSGGNTHYADSVKGRFTISRDNAKNTVYLQMNSLKPEDTAVYYCNADARSVWFYRVDYWGQGTQVTVSS	low polyreactivity
QVQLVESGGGLVQAGGSLRISCAASGGIFQRYDMGWYRKATGKERELVAAITRSGGSTYYADSVKGRFTISRDNAKNTVYLQMNSLKPEDTAVYYCAARTYGCYEYWGQGTQVTVSS	high polyreactivity
QVQLVESGGGLVQAGGSLRISCAASGGTFTNYAMGWYRQAPGKERELVAAITDSGATTYYADSVKGRFTISRDNAKNTVYLQMNSLKPEDTAVYYCNAELDLYTDFDYWGQGTQVTVSS	low polyreactivity
QVQLVESGGGLVQAGGSLRISCAASGIIFAYAMGWYRQAPGKERELVAAISGRDGSTYYADSVKGRFTISRDNAKNTVYLQMISLKQEDTAVYFCAAGDYYLQDNYWGQGTQVTVSS	low polyreactivity
QVQLVESGGGLVQAGGSLRISCAASGIILSDNAMGWYRQAPGKEREFVAAITGAGGSTYYADSVKGRFTISRDNAKNTVYLQMNSLKPEDTAVYYCAAESYPLSYSSATLSPSYEYWGQGTQVTVSS	low polyreactivity
QVQLVESGGGLVQAGGSLRISCAASGITFFRNAMGWYRQAPGKERELVATITKSGGSTYYADSVKGRFTISRDNAKNTVYLQMNSLKPEDTAVYDCAAVRRYPVKYVAYDYWGQGTQVTVSS	low polyreactivity
QVQLVESGGGLVQAGGSLRISCAASGITFYFNAMGWFRQAPGKERDLVAVITSVGSTNYADSVKGRFTISRDNAKNTDYIQMNSLKPEDTAVYYCYRTSYVKTPTKRYNYWGQGTQVTVSS	low polyreactivity
QVQLVESGGGLVQAGGSLRISCAASGITFYRYTMGWYRQAPGKERELVAAISRSGSSTYYADSVKGRFTISRDNAKNTVDLQMNSLIPEDTAVYYCASRFGDMGYWGQGTQVTVSA	high polyreactivity
QVQLVESGGGLVQAGGSLRISCAASGITLYGNVMGWYRQAPGKERELVAAISGGSTFYADSVKGRFTISRDNAKNTVYLQMNSLKPEDTAVYYCAAEWYGYGSNVPYYYWGQGTQVTVSS	low polyreactivity
QVQLVESGGGLVQAGGSLRISCAASGLSFYRYTMGWYRHAPGKEREFVAAITAGGSTYYADSVKGRFTISRDNAKNPVYLQMNRLKPEDTAVYYCAPRVLMEQYTYIKYDYWGQGTQVTVSS	high polyreactivity
QVQLVESGGGLVQAGGSLRISCAASGLTFDYYAMGSYRQAPGKERELVAAITSGSITYYADSVKGRFTISRDNAKNTVYLQMNSLKPEDTAVYYCAAKRTSFTARYGYWGLGTQVTVSS	high polyreactivity
QVQLVESGGGLVQAGGSLRISCAASGRIFAQYVMGWYRQAPGKERELVAAISSGGSTYYADSVKGRFTISRDNAKNTVYLQMNSLKPEDTAVYYCAARSRAHRVGRQPFDYWGQGTQVTVSS	high polyreactivity
QVQLVESGGGLVQAGGSLRISCAASGRIFDNYAMGWNRQAPGKERELVAAISVSGDSTYYADSVKGRFTISRDNAKNTVYLQMNSLKPEDTAVYYCAVDPDSYWYLTWADEMYYWGQGTQVTVSS	high polyreactivity
QVQLVESGGGLVQAGGSLRISCAASGRIFFAYAMGWYRQAPGKERELVASITWSGSSTTYADSVKGRFTISRDNAKNTVYLQMNSLKPDDTAVYFCGSDPYFWGYHFRRYGSRGQGTQVTVSS	low polyreactivity
QVQLVESGGGLVQAGGSLRISCAASGRIFKVYAMGWYRQAPGKERELVAAMSRSGGSTYYADSVKGRFTISRDNAKKTVYFQMNSLKPEDTAVYYCHAYFVYGHACGYDYWGQGSQVTVSS	high polyreactivity
